Measured values as given in US20190002503A1 (published 2019).
Where two headings read alike, the source gives them in different places. Blank lines part the entries; values can stand above or below the binder they belong to. Starred links: 1 amine or outer side, 2 acyl side, 3 side chain; linkers in the order of their positions; H or OH if unused. Positions of bridges follow the written chain, without caps; N, C: chain ends. Groups on a side chain read outwards from the residue. *: point of attachment. γGlu = O=C(O)[C@H](CCC(=O)[*:2])N[*:1]; Palmitoyl = CCCCCCCCCCCCCCCC(=O)*; Isovaleryl = CC(C)CC(=O)*

Key:
Assay in all cases: cell-based or functional assay
[1] = biological target: T1, human ferroportin (SLC40A1) fused in frame with GFP, stably expressed in HEK293 cells (human, UniProt Q9NP59 1-571)
T1 sequence (looked up): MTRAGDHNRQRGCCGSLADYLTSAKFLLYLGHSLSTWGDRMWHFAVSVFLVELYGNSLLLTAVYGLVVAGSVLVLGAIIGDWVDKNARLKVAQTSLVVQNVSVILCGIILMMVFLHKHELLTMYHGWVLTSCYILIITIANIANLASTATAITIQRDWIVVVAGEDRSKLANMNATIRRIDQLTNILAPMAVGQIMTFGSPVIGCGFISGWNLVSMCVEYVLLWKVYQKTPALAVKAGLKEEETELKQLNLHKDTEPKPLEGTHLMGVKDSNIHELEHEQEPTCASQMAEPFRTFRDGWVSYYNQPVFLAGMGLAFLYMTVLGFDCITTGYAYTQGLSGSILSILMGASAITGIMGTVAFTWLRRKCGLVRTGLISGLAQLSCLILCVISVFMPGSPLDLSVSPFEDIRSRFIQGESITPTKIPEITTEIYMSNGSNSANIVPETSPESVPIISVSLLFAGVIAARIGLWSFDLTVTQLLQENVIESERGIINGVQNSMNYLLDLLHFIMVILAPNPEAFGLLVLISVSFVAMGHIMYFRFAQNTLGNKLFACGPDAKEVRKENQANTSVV

[2] = biological target: T1, human ferroportin (SLC40A1) fused in …; remark: listed apart in the source
[3] = biological target: T1, human ferroportin (SLC40A1) fused in …; remark: listed apart in the source

B5: Compound 22 (peptide)
peptide: DTHFPCIKFKPRSKGCK
modifications: N-terminal isovaleric acid; Lys 10 carries Ahx-Palm; C-terminal NH2 (amide)
- HEK-GFP cell based assay: potency EC50 (loss of ferroportin-GFP fluorescence) [1]: 18 nM

B7: Compound 12 (peptide)
peptide: DTHFPCIKFKPRSKGCK
modifications: N-terminal isovaleric acid; Lys 10 carries isoGlu-Lauric acid; C-terminal NH2 (amide)
- HEK-GFP cell based assay: potency EC50 (loss of ferroportin-GFP fluorescence) [1]: 14 nM

B9: Compound 15 (peptide)
peptide: DTHFPCIKFKPRSKGCK
modifications: N-terminal isovaleric acid; Lys 10 carries isoGlu-Isovaleric acid; C-terminal NH2 (amide)
- HEK-GFP cell based assay: potency EC50 (loss of ferroportin-GFP fluorescence) [1]: 26 nM

B11: Compound 10 (peptide)
peptide: DTHFPCIKFKPRSKXC
modifications: N-terminal isovaleric acid; Lys 10 carries IsoGlu-Palm; Sar (sarcosine) at 15; C-terminal NH2 (amide)
- HEK-GFP cell based assay: potency EC50 (loss of ferroportin-GFP fluorescence) [1]: 10 nM

B12: Compound 17 (peptide)
peptide: DTHFPCIKFKPRSKGCK
modifications: N-terminal isovaleric acid; Lys 10 carries PEG11-Palm; C-terminal NH2 (amide)
- HEK-GFP cell based assay: potency EC50 (loss of ferroportin-GFP fluorescence) [1]: 30 nM

B14: Compound 25 (peptide)
peptide: DTHFPCIKFKPRSKGCK
modifications: N-terminal isovaleric acid; Lys 10 carries Ac (acetyl); C-terminal NH2 (amide)
- HEK-GFP cell based assay: potency EC50 (loss of ferroportin-GFP fluorescence) [1]: 14 nM

B19: Compound 19 (peptide)
peptide: DTHFPCIKFKPRSKGCK
modifications: N-terminal isovaleric acid; Lys 10 carries PEG11-Myristic acid; C-terminal NH2 (amide)
- HEK-GFP cell based assay: potency EC50 (loss of ferroportin-GFP fluorescence) [1]: 30 nM

B20: Compound 14 (peptide)
peptide: DTHFPCIKFKPRSKGCK
modifications: N-terminal isovaleric acid; Lys 10 carries isoGlu-Bioitin (biotin); C-terminal NH2 (amide)
- HEK-GFP cell based assay: potency EC50 (loss of ferroportin-GFP fluorescence) [1]: 29 nM

B21: Compound 18 (peptide)
peptide: DTHFPCIKFKPRSKGCK
modifications: N-terminal isovaleric acid; Lys 10 carries PEG11-Lauric acid; C-terminal NH2 (amide)
- HEK-GFP cell based assay: potency EC50 (loss of ferroportin-GFP fluorescence) [1]: 36 nM

B22: Mini-Hepcidin 1-9 (peptide)
peptide: H-DTHFPICIF-NH2
- Potency EC50 (nM), ferroportin degradation in ferroportin-GFP HEK293 cells [2]: 712 nM

Other lines, results leading:

- HEK-GFP cell based assay: potency EC50 (loss of ferroportin-GFP fluorescence) [1]: 10 nM
B1: Compound 24 (peptide)
peptide: DTHFPCIKFKPRSKXCK
modifications: N-terminal isovaleric acid; Lys 10 carries Ahx-Palm; Sar (sarcosine) at 15; C-terminal NH2 (amide)

- Potency EC50 (nM), ferroportin degradation in ferroportin-GFP HEK293 cells [2]: > 10000 nM
B2: RI-Mini Hepcidin (peptide)
peptide: FICIPFHTD
modifications: all residues are D-amino acids (retro inverse of mini-hepcidin); C-terminal NH2 (amide)

- HEK-GFP cell based assay: potency EC50 (loss of ferroportin-GFP fluorescence) [1]: 10 nM
B3: Compound 13 (peptide)
peptide: DTHFPCIKFKPRSKGCK
modifications: N-terminal isovaleric acid; Lys 10 carries isoGlu-Myristic acid; C-terminal NH2 (amide)

- HEK-GFP cell based assay: potency EC50 (loss of ferroportin-GFP fluorescence) [1]: 22 nM
B4: Compound 11 (peptide)
peptide: Isovaleryl-DTHFPCKKFK([γGlu-Palmitoyl])PRSKGCK-NH2
modifications: disulfide 6-16 (inferred)

- HEK-GFP cell based assay: potency EC50 (loss of ferroportin-GFP fluorescence) [3]: 13 nM
B6: Compound 32 (peptide)
peptide: DTHFPCIKFXX
modifications: N-terminal isovaleric acid on each subunit; the two subunits are joined by IDA-[βala] that carries Peg11-Palm

- HEK-GFP cell based assay: potency EC50 (loss of ferroportin-GFP fluorescence) [1]: 11 nM
B8: Compound 9 (peptide)
peptide: DTHFPCIKFKPRSKGC
modifications: N-terminal isovaleric acid; Lys 10 carries IsoGlu-Palm; C-terminal NH2 (amide)

- HEK-GFP cell based assay: potency EC50 (loss of ferroportin-GFP fluorescence) [1]: 32 nM
B10: Compound 21 (peptide)
peptide: DTHFPCIKFKPRSKGCK
modifications: N-terminal isovaleric acid; Lys 10 carries PEG8; C-terminal NH2 (amide)

- HEK-GFP cell based assay: potency EC50 (loss of ferroportin-GFP fluorescence) [1]: 36 nM
B13: Compound 16 (peptide)
peptide: DTHFPCIKFKPRSKGCK
modifications: N-terminal isovaleric acid; Lys 10 carries PEG2-Palm; C-terminal NH2 (amide)

- HEK-GFP cell based assay: potency EC50 (loss of ferroportin-GFP fluorescence) [1]: 19 nM
B15: Compound 20 (peptide)
peptide: DTHFPCIKFKPRSKGCK
modifications: N-terminal isovaleric acid; Lys 10 carries Palm; C-terminal NH2 (amide)

- HEK-GFP cell based assay: potency EC50 (loss of ferroportin-GFP fluorescence) [3]: 18 nM
B16: Compound 30 (peptide)
peptide: Isovaleryl-DTHFPCIRFK([γGlu-Octanoic acid])-NH2
modifications: also: dimer: two subunits joined at their C-termini through the Lys linker

- HEK-GFP cell based assay: potency EC50 (loss of ferroportin-GFP fluorescence) [3]: 8 nM
B17: Compound 31 (peptide)
peptide: DTHFPCIKFXX
modifications: N-terminal isovaleric acid on each subunit; the two subunits are joined by IDA-[βala] that carries Peg2-Palm

- HEK-GFP cell based assay: potency EC50 (loss of ferroportin-GFP fluorescence) [1]: 11 nM
B18: Compound 6 (peptide)
peptide: DTHFPCIKFKPRSKXCK
modifications: N-terminal isovaleric acid; Lys 10 carries IsoGlu-Palm; Sar (sarcosine) at 15; C-terminal NH2 (amide)
